Laboratory results: patent publication US20110262922, “APTAMER SANDWICH ASSAYS” (POSCO, published 2011)

What was measured:
ERBB2 (HER2) [1] = target: T1, ERBB2 (HER2) (UniProt P04626 P04626:23-652); test: filter; +/-0.20; same buffer, 37 C; not competing with ERBB2-12; conditions: tags: His-tagged; R&D Systems Cat# 1129-ER; label: 5'-32P
Insulin receptor (IR) [2] = target: T2, Insulin receptor (IR) (Homo sapiens, UniProt P06213-2;P06213-2 P06213-2:28-746,P06213-2:751-944); test: FP; placeholder; conditions: tags: His-tagged; R&D Systems Cat# 1544-IR; chain copies: 2; label: 5'-32P
T2 sequence (P06213 other isoform, or with tags, fused parts or gaps, chain 1 of 2): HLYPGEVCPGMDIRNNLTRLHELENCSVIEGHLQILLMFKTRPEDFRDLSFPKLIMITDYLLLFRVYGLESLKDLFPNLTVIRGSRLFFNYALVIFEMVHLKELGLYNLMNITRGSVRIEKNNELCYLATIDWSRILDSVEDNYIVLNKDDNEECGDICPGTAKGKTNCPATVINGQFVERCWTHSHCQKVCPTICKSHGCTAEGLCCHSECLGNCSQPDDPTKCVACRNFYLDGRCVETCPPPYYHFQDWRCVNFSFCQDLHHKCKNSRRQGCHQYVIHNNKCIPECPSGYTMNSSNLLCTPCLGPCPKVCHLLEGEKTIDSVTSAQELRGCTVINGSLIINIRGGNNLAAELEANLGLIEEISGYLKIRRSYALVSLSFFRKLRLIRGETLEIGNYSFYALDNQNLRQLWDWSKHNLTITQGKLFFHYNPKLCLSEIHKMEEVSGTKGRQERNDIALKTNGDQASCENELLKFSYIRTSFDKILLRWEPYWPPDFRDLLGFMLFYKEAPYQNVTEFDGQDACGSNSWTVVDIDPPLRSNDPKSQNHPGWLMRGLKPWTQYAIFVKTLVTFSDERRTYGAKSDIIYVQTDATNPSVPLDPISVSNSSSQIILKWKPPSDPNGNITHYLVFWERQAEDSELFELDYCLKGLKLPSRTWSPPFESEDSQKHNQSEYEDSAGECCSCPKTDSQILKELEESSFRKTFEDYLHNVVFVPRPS
T2 sequence (P06213 763-956, chain 2 of 2): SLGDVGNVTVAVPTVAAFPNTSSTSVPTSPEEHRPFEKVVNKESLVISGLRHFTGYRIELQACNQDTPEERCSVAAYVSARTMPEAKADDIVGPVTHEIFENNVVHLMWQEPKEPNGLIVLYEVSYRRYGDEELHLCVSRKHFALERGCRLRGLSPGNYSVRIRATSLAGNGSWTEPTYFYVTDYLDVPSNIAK

Insulin receptor (IR) [3] = target: T2, Insulin receptor (IR); test: filter; +/-1.08; 40 mM HEPES pH 7.5, 120 mM NaCl, 5 mM KCl, 5 mM MgCl2, 0.002% tween-20, 37 C; not competing with IR-13; conditions: tags: His-tagged; R&D Systems Cat# 1544-IR; chain copies: 2; label: 5'-32P
ERBB2 (HER2) [4] = target: T1, ERBB2 (HER2); test: filter; +/-1.25; same buffer, 37 C; conditions: tags: His-tagged; R&D Systems Cat# 1129-ER; label: 5'-32P
Experimental: (§1) Aptamers identified using the above SELEX process were amplified by PCR and cloned as described above. Up to fifty randomly picked plasmid clones were sequenced. To verify that cloned aptamers bind to IR or ERBB2, aptamers that had same sequence in the aptamer pool were tested for binding affinity. Briefly, aptamers were incubated with various concentrations of target His-tagged proteins and the target His-tagged proteins were captured on Talon bead. Radio labeled aptamers that were bound to target proteins were then detected by phosphoimager.
(§2) Specifically, Aptamer-protein equilibrium dissociation constants (Kd's) were determined by the nitrocellulose-filter binding method as described by White et al. in Mol. Ther., 2001, 4(6), 567-73. For all binding assays, aptamers were dephosphorylated using alkaline phosphatase (New England Biolab) and labeled at the 5′-end using T4 polynucleotide kinase (New England Biolabs, Beverly, Mass.) and [γ³²P]ATP (Amersham Pharmacia Biotech, Piscataway, N.J.) as described by Fitzwater et al., in Methods Enzymol, 1996, 267, 275-301. […] The fraction of bound aptamer was quantified with a PhosphorImager (Fuji FLA-5100 Image Analyzer, Tokyo, Japan). […]

Insulin receptor (IR) [5] = target: T2, Insulin receptor (IR); test: filter; +/-0.78; same buffer, 5 mM MgCl2, 37 C; conditions: tags: His-tagged; R&D Systems Cat# 1544-IR; chain copies: 2; label: 5'-32P
Experimental: as §1, §2

ERBB2 (HER2) [6] = target: T1, ERBB2 (HER2); test: filter; +/-0.39; same buffer, 37 C; conditions: tags: His-tagged; R&D Systems Cat# 1129-ER; label: 5'-32P
Experimental: as §1, §2

Insulin receptor (IR) [7] = target: T2, Insulin receptor (IR); test: filter; +/-0.28; same buffer, 5 mM MgCl2, 37 C; conditions: tags: His-tagged; R&D Systems Cat# 1544-IR; chain copies: 2; label: 5'-32P
Experimental: as §1, §2

Insulin receptor (IR) [8] = target: T2, Insulin receptor (IR); test: filter; +/-0.26; same buffer, 5 mM MgCl2, 37 C; conditions: tags: His-tagged; R&D Systems Cat# 1544-IR; chain copies: 2; label: 5'-32P
Experimental: as §1, §2

ERBB2 (HER2) [9] = target: T1, ERBB2 (HER2); test: filter; +/-0.12; 40 mM HEPES pH 7.5, 120 mM NaCl, 5 mM KCl, 5 mM MgCl2, 0.002% tween-20, 37 C; conditions: tags: His-tagged; R&D Systems Cat# 1129-ER; label: 5'-32P
Experimental: as §1, §2

B1: ERBB2-1 (ssDNA)
DNA: GAGTGACCGTCTGCCTGATGTTAGAGTTTGCCTGAGTGCCTCGTAAGGGCGTAACAACAGCCACACCACCAGCC
Kd (ERBB2 (HER2) [1]): 3.05 nM

B2: IR-6 (ssDNA)
DNA: GAGTGACCGTCTGCCTGTGGGTACAGTCTTTAGCTTACACAGGCTCCTGAAGACGCACAGCCACACCACCAGCC
Kd (Insulin receptor (IR) [2]): 4.6 nM
Kd (Insulin receptor (IR) [3]): 4.6 nM

B3: ERBB2-19 (ssDNA)
DNA: GAGTGACCGTCTGCCTGATTAGATGAAAGCGCATTCCAACAACAGATAATCTGAGGGCAGCCACACCACCAGCC
Kd (ERBB2 (HER2) [4]): 15.8 nM

B4: IR-13 (ssDNA)
DNA: GAGTGACCGTCTGCCTGTTATCCACTATGGCTTCTCATTCAAATAAGTGCGATCGATCAGCCACACCACCAGCC
Kd (Insulin receptor (IR) [5]): 4.83 nM

B5: ERBB2-10 (ssDNA)
DNA: GAGTGACCGTCTGCCTGGTTAGACTGAACGCACTGAGGGCCGCAGCCTATCTGAAGGCAGCCACACCACCAGCC
Kd (ERBB2 (HER2) [6]): 3.7 nM

B6: IR-25 (ssDNA)
DNA: GAGTGACCGTCTGCCTGAGATCCGACTGTTTACTGTTTAACAGCCGGCTGATGGACCCAGCCACACCACCAGCC
Kd (Insulin receptor (IR) [7]): 13.3 nM

B7: IR-11 (ssDNA)
DNA: GAGTGACCGTCTGCCTGTAAGGTTTAAGCTTGGCCTAATGGTGCTATCAGGCTCAGCAGCCACACCACCAGCC
Kd (Insulin receptor (IR) [8]): 5.48 nM

B8: ERBB2-12 (ssDNA)
DNA: GAGTGACCGTCTGCCTGTCCTGGCATGTTCGATGGAGGCCTTTGATTACAGCCCAGACAGCCACACCACCAGCC
Kd (ERBB2 (HER2) [9]): 0.78 nM
